{"source": "patent US20160348147A1", "about": "“SYSTEMS AND DEVICES FOR PROTEASE DETECTION BASED ON ENGINEERED POLYMERS AND BIOPOLYMERS AND METHODS OF USE” (DUKE UNIVERSITY, priority 2014, published 2016)", "type_in_all_cases": "biochemical", "key": {"MMP-1 [1]": {"molecular_target": "T1, MMP-1 (Homo sapiens, UniProt P03956)", "T1 construct": "Human MMP-1 catalytic domain (recombinant, produced in E. coli, 19.9 kDa, >95% purity); purchased Enzo Life Sciences (Farmingdale, N.Y.); host or cells: E. coli", "T1 sequence (P03956 100-269 limits assumed)": "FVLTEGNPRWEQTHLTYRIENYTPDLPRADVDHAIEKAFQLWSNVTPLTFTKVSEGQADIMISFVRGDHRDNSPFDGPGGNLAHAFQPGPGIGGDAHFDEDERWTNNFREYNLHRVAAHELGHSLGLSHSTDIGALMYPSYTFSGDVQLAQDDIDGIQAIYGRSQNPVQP", "test": "Mass spectrometry of ELP-substrate fusion before and after incubation with MMP-1", "settings": "100 μM polypeptide, 100 ng/mL MMP-1, 2 h at 25° C., proteolysis buffer", "experimental": "We confirmed the purity and molecular weight of the purified peptides by electrophoresis (10-20% gradient […] SDS-PAGE, Thermo Scientific, CA) and by matrix-assisted laser desorption/ionization mass spectrometry. Mass spectrometry samples were prepared by mixing the enzymatic reaction product with sinapinic acid in 1:10 ratio. 1 μL of the sample/matrix mixture was then loaded on the grid and the measurements were performed on a Voyager-DE-Pro instrument (Applied Biosystems, Germany). To determine the concentration of the ELP-substrate fusion solutions we used a calculated extinction coefficient (Gill, S. C. & Vonhippel, P. H. Analytical Biochemistry 1989, 182, 319-326) or lyophilized the polypeptide solution. We studied the thermal behavior of the ELP-substrate fusion constructs in both proteolysis buffer (see below) and diluted human serum in the presence and absence of MMP-1 using optical turbidimetry on a temperature-programmed UV-vis spectrometer (Cary 300, Agilent Technologies). To characterize the size of the micelles and aggregates, we used single angle dynamic light scattering (DLS; DynaPro, Protein Solution).\nWe used mass spectrometry to examine the cleavage of the MMP-1 substrate peptide in the ELP-substrate fusion by measuring the molecular weight of the polypeptides prior to, and after incubation with MMP-1. […]"}, "MMP-1 [2]": {"molecular_target": "T1, MMP-1", "test": "Kinetic study of MMP-1 cleavage (SDS-PAGE, Lineweaver-Burke plot)", "settings": "substrate 25, 50, 100, 200 μM, enzyme 20 ng/mL, buffer, 40° C.", "experimental": "We used mass spectrometry to examine the cleavage of the MMP-1 substrate peptide in the ELP-substrate fusion by measuring the molecular weight of the polypeptides prior to, and after incubation with MMP-1. We incubated 0.5 mL of 100 μM polypeptide in proteolysis buffer with 100 ng/mL of MMP-1 for 2 h at 25° C. […] For example, an enzymatic reaction can be written in general form as:\nIn which V0 is the initial rate of the enzymatic reaction at a given substrate concentration. Using equation Eq. 4, we can calculate Vmax by plotting 1/V0 versus 1/[S] at different substrate concentrations and a constant enzyme concentration and then calculate kcat by implementing equation Eq. 3.\nWe performed a series of kinetic studies in which the concentration of the substrate in the buffer solution was chosen to be 25, 50, 100, and 200 μM. We then added 20 ng/mL of enzyme to each of the solutions and kept all the solutions at a constant temperature (40′C). […] We quantified these changes by image analysis (ImageJ software) and used them to quantify the amount of product for each substrate concentration at each sampling time. We then calculated the initial rate of the reaction (V0) by using the concentration of the converted substrate and the time of reaction.\nWe then used equation Eq. 4 and plotted 1/[S] versus 1/[V0] […] From Vmax and equation Eq. 3, we calculated kcat to be equal to 8.0±1.9 s^−1. […]"}, "[3]": {"molecular_target": "T2, Human MMP-1 catalytic domain (Homo sapiens, UniProt P03956)", "T2 construct": "Human MMP-1 catalytic domain (recombinant, produced in E. coli, 19.9 kDa, >95% purity); purchased Enzo Life Sciences (Farmingdale, N.Y.); host or cells: E. coli", "T2 sequence (P03956 100-269 limits assumed)": "T1 sequence (P03956 100-269 limits assumed)", "test": "Time-dependent aggregation (OD350) of ELP-substrate fusion with MMP-1 in proteolysis buffer", "settings": "50 ng/mL MMP-1, without the inhibitor, proteolysis buffer, 40° C., 100 μM", "procedure": "We performed the proteolysis reactions either in 100% protease buffer or in a mixture of human serum and buffer (40% (v/v) serum, 50% (v/v) buffer, 10% (v/v) ELP-substrate solution in water). The proteolysis buffer (100 mM HEPES, CaCl2 20 mM, MgCl2 1.0 mM, ZnCl2 100 μM, NaCl 0.5 M for diluted serum and 0.1 M for buffer solutions) was made experimentally in our lab based on previously published assays (Patterson, J. & Hubbell, J. A. Biomaterials 2010, 31, 7836-7845; Turk, B. E. et al., Nature Biotechnology 2001, 19, 661-667; Lowe, S. B. et al., Acs Nano 2012, 6, 851-857). We investigated proteolysis in two ways. In the first approach, we incubated solutions of the ELP-substrate fusion with MMP-1 (100 ng/mL) for 12 h at 40° C. temperature and measured the optical density at 350 nm (OD350) before and after the incubation. In the second approach, we incubated the ELP-substrate fusion with varying concentrations of MMP-1 (0.02 ng/mL to 200 ng/mL) in buffer or in diluted human serum, at 40° C. or 37° C. respectively, a temperature that is above the CMT of the ELP, and monitored the changes OD350 as a function of time (kinetic study). For the kinetic studies, we added the enzyme to the solution after the optical density of the solution reached a steady-state value and repeated the experiments at least three times. […]"}}, "data": [{"substance": "M(GVGVP)60GDGQVPMSMRGGDDEGQQDDEEGY (MGVGVPGDGQVPMSMRGGDDEGQQDDEEGY) [ELP-substrate fusion, recombinant polypeptide: ELP fused to MMP-1 substrate and charged hydrophilic peptide]", "values": [{"measurement": "cleavage of the MMP-1 substrate peptide (mass spectrometry)", "setting": "MMP-1 [1]", "value": "most of the 1.8 kDa MMP-sensitive peptide is cleaved off"}, {"measurement": "kcat", "setting": "MMP-1 [2]", "value": "8.0 ± 1.9", "unit": "s⁻¹"}, {"measurement": "aggregation time", "setting": "[3]", "value": "less than 50 min"}]}]}
